# Legend:
# [1] = molecular target: PE-PilA fusion protein (version used in solution and ELISA experiments) (nontypeable Haemophilus influenzae strain 772 | nontypeable Haemophilus influenzae strain 86-028NP); assay: AUC; sedimentation velocity, 25,000 rpm, AN-60Ti rotor, 15°C, absorbance at 280 nm, c(S) model in Sedfit
# [2] = molecular target: protein E (PE), recombinant, isolated (nontypeable Haemophilus influenzae strain 772); assay: as above
substance,measurement,setting,value
PE-PilA fusion protein (version used in solution and ELISA experiments),stoichiometry N,[1],2
"protein E (PE), recombinant, isolated (domain or fragment)",stoichiometry N,[2],2
